Experimental data taken from patent US8133978 (GlaxoSmithKline, dated 2012).
Positions count from the first letter of the chain named. One block for each binder: values may come before it.

How the values were obtained:
[1] = target: T1, Human interleukin-18 (recombinant human IL-18) (human, UniProt Q14116 37-193); experiment: SPR, Biacore T100, Protein A capture, 25 C, mean n = 3
T1 construct: also called hIL-18
T1 sequence: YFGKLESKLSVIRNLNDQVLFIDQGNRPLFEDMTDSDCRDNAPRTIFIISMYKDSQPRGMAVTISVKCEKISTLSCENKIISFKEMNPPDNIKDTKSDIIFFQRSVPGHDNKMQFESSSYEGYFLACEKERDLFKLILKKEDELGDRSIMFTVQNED
Description: (§1) The methodology was basically the same as for the method used in Example 4a above; Protein A was immobilised on a CM5 chip at densities of between 2000-6000 RU's by primary amine coupling. Runs were carried out in HBS-EP (Biacore™). The anti-IL-18 antibodies were captured to densities of between 100-500 RUs, human IL-18 was passed over this captured surface at concentrations between 16-0.0625 nM, with 0 nM concentration (i.e., a buffer only injection of captured antibody) used for double referencing. Regeneration after each injection of IL-18 was by mild acidic elution using two injections of 10 mM glycine, pH1.5. […] The binding curves obtained were analysed using the analysis software inherent to the T100 machine using the 1:1 model of binding. Runs were carried out at the temperatures indicated.
(§2) These experiments were carried out as described above. Table 6 details the kinetic parameters obtained. […] H1L2 has a better on-rate (ka) than H1L1.

[2] = target: T1, Human interleukin-18 (recombinant human …); experiment: ELISA, antibody on plate, human IL-18 captured, detected by 16D10; 37 C, blocking buffer
Description: (§3) ELISA was carried out with the three Humanised H1 variants; H1L1, H1L2 and H1L3 to assess binding to human IL-18 at room temperature and at 37° C. in both human serum and in block solution (PBS 0.05% TWEEN with 1% BSA (w/v)). The Humanised antibody variants were immobilised on Nunc Maxisorp 96-well plates at 2.5 µg/ml. Capture of 5 ng/ml of recombinant human IL-18 was carried out either at room temperature or 37° C. in human serum or block solution. Anti-IL-18 mouse monoclonal antibody 16D10 was added. The bound mouse antibody was detected using anti-mouse kappa peroxidase conjugate (Serotec MCA 1291P). Representative EC50 values generated from the study data are illustrated in Table 9.

[3] = target: T1, Human interleukin-18 (recombinant human …); experiment: ELISA, antibody on plate, human IL-18 captured, detected by 16D10; room temperature, in serum
Description: as §3

[4] = target: T1, Human interleukin-18 (recombinant human …); experiment: SPR, Biacore T100, Protein A capture, 37 C, mean n = 2
Description: as §1

[5] = target: T1, Human interleukin-18 (recombinant human …); experiment: ELISA, antibody on plate, human IL-18 captured, detected by 16D10; room temperature, blocking buffer
Description: as §3

[6] = target: T2, Rhesus IL-18 (rhesus (rhesus/cynomolgus)); experiment: Rhesus IL18 binding ELISA, antibody titrated, OD 490 nm
T2 construct: also called Rhesus/Cynomolgus IL-18; rhesus/cynomolgus IL-18

[7] = target: T1, Human interleukin-18 (recombinant human …); experiment: ELISA, antibody on plate, human IL-18 captured, detected by 16D10; 37 C, in serum
Description: as §3

[8] = target: T1, Human interleukin-18 (recombinant human …); experiment: SPR, Biacore 3000, antibody captured on Protein A, 25 C
Description: Biacore™ kinetic analysis of the humanised 2C10 antibodies was carried out on a Biacore™ 3000 instrument using Protein A capture of the antibodies in HBS-EP buffer (Biacore™). Briefly, Protein A was immobilised on a CM5 chip by primary amine coupling, using manufacturers recommended protocol, to densities around 2000-4000 resonance units (RU's). Humanised antibody was then passed over the Protein A surface and captured to levels of around 200-500 RU's, after a period of stabilisation, IL-18 (human or Rhesus) was passed over the captured antibody surface at defined concentrations and binding sensorgrams were obtained. […] All curves were double referenced against a buffer injection instead of IL-18 and the data was fitted to the 1:1 binding model using the global fit parameters in BiaEval 4.1. Off-rate ranking experiments were set up using the same Protein A capture method, however, only a single concentration of IL-18 was used (10 nM). Whilst the data was fitted using the same binding model as the kinetic analysis, since only one concentration of analyte was used on the off-rate is reported, this value is useful for ranking rather than giving an exact kinetic measurement and was used as a way of selecting which antibodies would be further investigated. […]

[9] = target: T2, Rhesus IL-18; experiment: Rhesus IL-18 binding ELISA, antibody titrated, OD 490 nm
[10] = target: T2, Rhesus IL-18; experiment: SPR, Biacore 3000, antibody captured on Protein A, 25 C
Description: (§4) Biacore™ kinetic analysis of the humanised 2C10 antibodies was carried out on a Biacore™ 3000 instrument using Protein A capture of the antibodies in HBS-EP buffer (Biacore™). Briefly, Protein A was immobilised on a CM5 chip by primary amine coupling, using manufacturers recommended protocol, to densities around 2000-4000 resonance units (RU's). Humanised antibody was then passed over the Protein A surface and captured to levels of around 200-500 RU's, after a period of stabilisation, IL-18 (human or Rhesus) was passed over the captured antibody surface at defined concentrations and binding sensorgrams were obtained. […] All curves were double referenced against a buffer injection instead of IL-18 and the data was fitted to the 1:1 binding model using the global fit parameters in BiaEval 4.1. Off-rate ranking experiments were set up using the same Protein A capture method, however, only a single concentration of IL-18 was used (10 nM). Whilst the data was fitted using the same binding model as the kinetic analysis, since only one concentration of analyte was used on the off-rate is reported, this value is useful for ranking rather than giving an exact kinetic measurement and was used as a way of selecting which antibodies would be further investigated.
(§5) Based upon these observations selected antibodies were investigated in greater detail for binding to human and Rhesus IL-18 at 37° C. The data shown in Table 4b for human IL-18 is the mean (and standard deviation) of six separate determinations.

[11] = target: T1, Human interleukin-18 (recombinant human …); experiment: ELISA, human IL-18 captured by 16D10, antibody titrated
Description: ELISA with all nine humanised variants was carried out at least 6 times using various batches of purified antibody preparation. FIGS. 4A-4C show representative data from one experiment which generated the EC50 value ranking illustrated in Table 7. Human IL-18 was immobilized on Nunc Maxisorp 96-well plates using 2.5 µg/ml of 16D10 (non-neutralising mouse monoclonal antibody) to capture 5 ng/ml of recombinant human IL-18. Anti-IL-18 humanised antibodies were added at various dilutions. Bound humanised antibodies were detected using anti-human IgG Fc specific peroxidase conjugate (Sigma A0170).

[12] = target: T1, Human interleukin-18 (recombinant human …); experiment: SPR, Biacore T100, antibody captured on Protein A, 32 C
Description: as §1
(§6) This experiment was carried out using the above method at various temperatures. […] Table 5 details the kinetic values used to create these figures.

[13] = target: T1, Human interleukin-18 (recombinant human …); experiment: SPR, Biacore T100, antibody captured on Protein A, 37 C
Description: as §1, §6

[14] = target: T1, Human interleukin-18 (recombinant human …); experiment: SPR, Biacore T100, Protein A capture, 25 C, mean n = 4
Description: as §1, §2

[15] = target: T1, Human interleukin-18 (recombinant human …); experiment: SPR, Biacore T100, antibody captured on Protein A, 25 C
Description: as §1, §6

[16] = target: T1, Human interleukin-18 (recombinant human …); experiment: SPR, Biacore T100, antibody captured on Protein A, 20 C
Description: as §1, §6

[17] = target: T1, Human interleukin-18 (recombinant human …); experiment: SPR, Biacore T100, antibody captured on Protein A, 15 C
[18] = target: T1, Human interleukin-18 (recombinant human …); experiment: cell-based or functional assay
[19] = target: T1, Human interleukin-18 (recombinant human …); experiment: SPR, Biacore T100, Protein A capture, 37 C, mean n = 6
Description: as §1, §2

[20] = target: T1, Human interleukin-18 (recombinant human …); experiment: SPR, Biacore 3000, antibody captured on Protein A, 37 C
Description: as §4, §5

[21] = target: T2, Rhesus IL-18; experiment: as above
Description: as §4, §5

[22] = target: T1, Human interleukin-18 (recombinant human …); experiment: SPR, Biacore T100, Protein A capture, 37 C, mean n = 3
Description: as §1

B2: H2L2 humanised anti-IL-18 antibody (antibody, human IgG1, kappa, V domains shown)
VH: QVQLVQSGAEVKKPGASVKVSCKVSGEISTGYYFHWVRRRPGKGLEWMGRIDPEDDSTKYAERFKDRVTMTEDTSTDTAYMELSSLRSEDTAVYYCTTWRIYRDSSGRPFYVMDAWGQGTLVTVSS
VL: DIQMTQSPSSVSASVGDRVTITCLASEDIYTYLTWYQQKPGKAPKLLIYGANKLQDGVPSRFSGSGSGTDYTLTISSLQPEDFATYYCLQGSKFPLTFGQGTKLEIKR
notes: Human IgG1 / kappa
Kd [8]: 20.1 pM | Kd [10]: 104 pM | EC50 [11]: 0.012 µg/mL

B3: H1L1 humanised anti-IL-18 antibody (antibody, human IgG1, kappa, V domains shown)
VH: B2 VH with R39Q, R40A
VL: B2 VL with Y71F
notes: Human IgG1 / kappa
Kd [12]: 47.2 pM | Kd [13]: 53.3 pM | EC50 [2]: 0.00343 µg/mL | EC50 [3]: 0.0102 µg/mL | Kd [14]: 33.1 pM | Kd [15]: 31.1 pM | EC50 [5]: 0.00331 µg/mL | Kd [16]: 23.7 pM | Kd [17]: 20.1 pM | EC50 [7]: 0.0121 µg/mL | % change vs 2C10 (IC50, KG-1 bioassay) [18]: 269% | Kd [8]: 33.2 pM | Kd [19]: 94.3 pM | Kd [10]: 380 pM | EC50 [11]: 0.01 µg/mL

B4: H1L3 humanised anti-IL-18 antibody (antibody, human IgG1, kappa, V domains shown)
VH: B2 VH with R39Q, R40A
VL: B2 VL with K45Q, F83E, A84G, T85D
notes: Human IgG1 / kappa
Kd [1]: 22 pM | Kd [20]: 188 pM | Kd [21]: 170 pM | EC50 [2]: 0.00333 µg/mL | EC50 [3]: 0.00899 µg/mL | EC50 [5]: 0.00379 µg/mL | Kd [22]: 64.8 pM | EC50 [7]: 0.0114 µg/mL | % change vs 2C10 (IC50, KG-1 bioassay) [18]: 71.6% | Kd [8]: 22.5 pM | Kd [10]: 109 pM | EC50 [11]: 0.011 µg/mL

B5: H2L1 humanised anti-IL-18 antibody (antibody, human IgG1, kappa, V domains shown)
VH: B2 VH
VL: B2 VL with Y71F
notes: Human IgG1 / kappa
Kd [8]: 33.5 pM | Kd [10]: 627 pM | EC50 [11]: 0.021 µg/mL

B8: H2L3 humanised anti-IL-18 antibody (antibody, human IgG1, kappa, V domains shown)
VH: B2 VH
VL: B2 VL with K45Q, F83E, A84G, T85D
notes: Human IgG1 / kappa
Kd [8]: 23.8 pM | EC50 [11]: 0.016 µg/mL

B9: H3L3 humanised anti-IL-18 antibody (antibody, human IgG1, kappa, V domains shown)
VH: B2 VH with W36F, E72A, V93T, Y95F
VL: B2 VL with K45Q, F83E, A84G, T85D
notes: Human IgG1 / kappa
Kd [20]: 110 pM | Kd [21]: 75.6 pM | EC50 (read off the curve) [6]: ~0.03 µg/mL | Kd [8]: 24.2 pM | EC50 [11]: 0.009 µg/mL

The next binders have a lower Kd [8] than those just listed; values first:

Kd [8]: 19.4 pM | Kd [10]: 149 pM | EC50 [11]: 0.013 µg/mL
B7: H3L1 humanised anti-IL-18 antibody (antibody, human IgG1, kappa, V domains shown)
VH: B2 VH with W36F, E72A, V93T, Y95F
VL: B2 VL with Y71F
notes: Human IgG1 / kappa

Kd [20]: 105 pM | Kd [21]: 64.3 pM | Kd [8]: 16.5 pM | Kd [10]: 59.6 pM | EC50 [11]: 0.008 µg/mL
B6: H3L2 humanised anti-IL-18 antibody (antibody, human IgG1, kappa, V domains shown)
VH: B2 VH with W36F, E72A, V93T, Y95F
VL: B2 VL
notes: Human IgG1 / kappa

Kd [1]: 9.1 pM | EC50 [2]: 0.00379 µg/mL | EC50 [3]: 0.0073 µg/mL | Kd [4]: 22.9 pM | EC50 [5]: 0.00381 µg/mL | EC50 (read off the curve) [6]: ~0.02 µg/mL | EC50 [7]: 0.0101 µg/mL | Kd [8]: 13.9 pM | EC50 (read off the curve) [9]: ~0.01 µg/mL | Kd [10]: 54.7 pM | EC50 [11]: 0.007 µg/mL
B1: 2C10 rat-human chimera (chimaeric antibody 2C10c) (antibody, V domains shown)
VH: EVQLQQSGAELVRPGTSVKLSCKVSGEISTGYYFHFVRRRPGQGLEWIGRIDPEDDSTKYAERFKDRATLTAQTSSNTAYLNLSSLTSEDTATYFCTTWRIYRDSSGRPFYVMDAWGQGTLVTVSS
VL: DIQMTQSPASLSASLGETVSIECLASEDIYTYLTWYQQKPGKSPQLLIYGANKLQDGVPSRFSGSGSGTQYSLKISGIQPEDEGDYFCLQGSKFPLTFGSGTKLEIKR
notes: Rat 2C10 V regions joined to human IgG1 and kappa C regions; also called Chimera 2C10; 2C10 Chimera
